Data published in US20240190935A1 (EAST CAROLINA UNIVERSITY, published 2024).

T1: human sCD25(C213T) (aa1-240 of NP_000408 with C213T, C-terminal 8-histidine) (human, UniProt P01589 22-240)
T1 construct: range 1-240; Secreted from stably transfected HEK293F cells and purified on Ni-NTA; the inserted alanine shifts positions in the construct by one; No signal peptide cleavage site is stated; also called hCD25-C213T
T1 sequence: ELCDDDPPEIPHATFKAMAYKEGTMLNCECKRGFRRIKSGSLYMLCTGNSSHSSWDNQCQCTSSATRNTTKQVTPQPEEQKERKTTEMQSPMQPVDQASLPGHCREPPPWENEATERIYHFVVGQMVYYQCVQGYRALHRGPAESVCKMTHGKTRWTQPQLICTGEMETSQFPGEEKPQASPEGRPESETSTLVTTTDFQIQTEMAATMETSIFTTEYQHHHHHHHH

T2: human truncated-sCD25 (aa1-212 of NP_000408, C-terminal 8-histidine) (human, UniProt P01589 22-212)
T2 construct: range 1-212; Secreted from stably transfected HEK293F cells and purified on Ni-NTA; No signal peptide cleavage site is stated; also called hCD25-trunc
T2 sequence: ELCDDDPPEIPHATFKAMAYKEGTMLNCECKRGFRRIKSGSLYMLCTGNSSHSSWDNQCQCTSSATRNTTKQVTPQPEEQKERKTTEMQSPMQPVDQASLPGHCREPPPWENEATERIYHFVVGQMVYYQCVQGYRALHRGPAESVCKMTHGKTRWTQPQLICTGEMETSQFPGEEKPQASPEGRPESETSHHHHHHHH

B1: mouse sCD25 (murine soluble CD25, aa1-208 of NP_032393, C-terminal 8-histidine) (receptor)
chain: ELCLYDPPEVPNATFKALSYKNGTILNCECKRGFRRLKELVYMRCLGNSWSSNCQCTSNSHDKSRKQVTAQLEHQKEQQTTTDMQKPTQSMHQENLTGHCREPPPWKHEDSKRIYHFVEGQSVHYECIPGYKALQRGPAISICKMKCGKTGWTQPQLTCVDEREHHRFLASEESQGSRNSSPESETSHHHHHHHH
notes: range 1-208; Secreted from stably transfected HEK293F cells and purified on Ni-NTA; The construct is defined as aa1-208, signal peptide included; also called murine sCD25; mCD25

Tests used:
[1] = target: T3, anti-mouse CD25-BV421 mAb (clone PC61); assay: Flow cytometry competition: mouse sCD25 (1-1000 nM) pre-incubated with BV421-PC61 for 1 h at 4 °C, then HEK cells expressing full-length mouse CD25 added; blocked: binding of the mAb to CD25 on the cells
T3 construct: Commercial fluorochrome-conjugated mAb (Biolegend), mouse-specific; also called BV421-PC61; anti-mouse CD25 mAb
Procedure: Then, HEKs expressing full-length transmembrane mouse CD25 or human CD25 were added to each tube and incubated for 1 hour at 4° C. and subsequently washed with HBSS two times prior to analyzing surface bound anti-CD25 mAbs by flow cytometry.

[2] = target: B1; assay: SPR (Biacore T200), steady-state fit; mouse IL-2 (1000-3.9 nM) injected over immobilized mouse sCD25; mean ± SD of three injection series
Procedure: (§1) SPR experiments were performed on a Biacore T200 instrument at 25° C. using a flowrate of 30 μL min-1 in a running buffer of HBS-T (10 mM HEPES (pH 7.3), 140 mM NaCl, 0.005% Tween 20). Proteins were immobilized on a CMD200 biosensor chip (Xantec Bioanalytics) using ethyl-3-(3-dimethylaminopropyl)-carbodiimide (EDC)/N-hydroxysuccinimide/(NHS) coupling chemistry. […] A reference surface was created by EDC/NHS activation followed by a seven-minute injection of 1 M ethanolamine (pH 8.5). […] Surfaces were regenerated to baseline by injection of 2M NaCl for three minutes. Each injection series was performed in triplicate. The resulting reference-corrected sensorgrams were blank subtracted using an injection of HBS-T and fit to a steady-state model of binding using T200 Evaluation software. KD values and Rₘₐₓ values are reported as the mean±standard deviation (SD). All figures were prepared using Graphpad Prism 8.0.

[3] = target: T1, human sCD25(C213T) (aa1-240 of …; assay: SPR (Biacore T200), steady-state fit; mouse IL-2 (1000-3.9 nM) injected over immobilized human sCD25(C213T); mean ± SD of three injection series [cont'd.) B]
Procedure: as §1

[4] = target: T2, human truncated-sCD25 (aa1-212 of …); assay: SPR (Biacore T200), steady-state fit; mouse IL-2 (1000-3.9 nM) injected over immobilized human truncated-sCD25; mean ± SD of three injection series [cont'd.) C]
Procedure: as §1

Row | Binder | IC50 (read off the curve) [1] [nM] | Kd [2] [nM] | Kd [3] [nM] | Kd [4] [nM]
1 | B1 | ~5 | – | – | –
2 | recombinant murine IL-2 (accession number NP_032392) (ligand, mouse, UniProt P04351 21-169, looked up, also called mouse IL-2; mIL-2) APTSSSTSSSTAEAQQQQQQQQQQQQHLEQLLMDLQELLSRMENYRNLKLPRMLTFKFYLPKQATELKDLQCLEDELGPLRHVLDLTQSKSFQLEDAENFISNIRVTVVKLKGSDNTFECQFDDESATVVDFLRRWIAFCQSIISTSPQ | – | 250 | 430 | 740
